Laboratory results reported in paper PMC10031466 (The Journal of Biological Chemistry, 2023).

Target: the molecule itself
Test: crystal structure; microbatch crystallization of His-SUMO tagged P. shigelloides NagK (5 mg/ml), Morpheus I screen with matrix microseeding; apo structure PDB 7P7I, 2 protein monomers in the a.u.

B1: N-acetylglucosamine kinase (NagK) from Plesiomonas shigelloides (enzyme)
chain: MYYGFDIGGTKIEFGAFDADLVRVARERVATPTESYAAFLDAIVTLVNNADAEFGVKGTVGIGIPGIADVETGKLLTSNIPAAMGHTLQRDLEERLQRPVKIENDANCFALSEAWDEDLRGEPSVLGLILGTGVGGGLIFNGKVHSGRANIAGEIGHTRLPYDALKLLGMENAPIFPCGCKNSGCIDNYLSGRGFEQLYDHYFSEKLSAPEIIAHYEQGERRAVQHVERFMELLAICLANIFTCLDPHVVVLGGGLSNFELIYQELPKRLPAHLLHVAKLPKIIKARHGDAGGVRGAAFLNL
notes: N-acetylglucosamine kinase NagK of Plesiomonas shigelloides, codon-optimized nagK gene in pOPINS3C; also called PsNagK; P. shigelloides NagK; source: E. coli BL21 (DE3), purified (HisTrap, Superdex 200 size exclusion); not shown: polyhistidine, N-terminal, kept; SUMO, N-terminal, kept
stoichiometry N: 2
